Data on five molecules can be found in patent publication US20230127047A1, “SELECTIVE GIP RECEPTOR AGONISTS COMPRISING A CHELATING MOIETY FOR IMAGING AND THERAPY PURPOSES” (ANTAROS MEDICAL AB, priority 2020, published 2023).

Data set [1] concerns the target T1, glucagon receptor (hGCGR) (Homo sapiens, UniProt P47871).
T1 construct: expressed in transfected cells
In words: cAMP response (HTRF) in PSC-HEK-293 cells expressing human glucagon receptor. It counts as cell-based. The protocol: (§1) Each vial contained 1.8 ml cells. The vials were slowly frozen to −80° C. in isopropanol, and then transferred in liquid nitrogen for storage.
(§2) Prior to their use, frozen cells were thawed quickly at 37° C. and washed (5 min at 900 rpm) with 20 ml cell buffer (lx HBSS; 20 mM HEPES, with 0.1% BSA).
(§3) For measurement of cAMP generation, 5 μl cells (final 5000 cells/well) and 5 μl of test compound were added to a 384-well plate, followed by incubation for 30 min at room temperature.
(§4) The cAMP generated was determined using a kit from Cisbio Corp. based on HTRF (Homogenous Time Resolved Fluorescence). The cAMP assay was performed according to manufacturer's instructions (Cisbio).
(§5) cAMP content of cells was determined using a kit from Cisbio Corp. (cat. no. 62AM4PEC) based on HTRF (Homogenous Time Resolved Fluorescence). […] Medium was then removed and cells washed with PBS lacking calcium and magnesium, followed by proteinase treatment with accutase (Sigma-Aldrich cat. no. A6964). Detached cells were washed and resuspended in assay buffer (1×HBSS; 20 mM HEPES, 0.1% BSA, 2 mM IBMX) and cellular density determined. They were then diluted to 400000 cells/ml and 25 μl-aliquots dispensed into the wells of 96-well plates. For measurement, 25 μl of test compound in assay buffer was added to the wells, followed by incubation for 30 minutes at room temperature.
(In general: In TR-FRET formats the signal depends on donor and acceptor labels being close together.)

The target in data set [2] is T2, human GIP receptor (hGIPR) (Homo sapiens, UniProt P48546).
T2 sequence (P48546 22-466): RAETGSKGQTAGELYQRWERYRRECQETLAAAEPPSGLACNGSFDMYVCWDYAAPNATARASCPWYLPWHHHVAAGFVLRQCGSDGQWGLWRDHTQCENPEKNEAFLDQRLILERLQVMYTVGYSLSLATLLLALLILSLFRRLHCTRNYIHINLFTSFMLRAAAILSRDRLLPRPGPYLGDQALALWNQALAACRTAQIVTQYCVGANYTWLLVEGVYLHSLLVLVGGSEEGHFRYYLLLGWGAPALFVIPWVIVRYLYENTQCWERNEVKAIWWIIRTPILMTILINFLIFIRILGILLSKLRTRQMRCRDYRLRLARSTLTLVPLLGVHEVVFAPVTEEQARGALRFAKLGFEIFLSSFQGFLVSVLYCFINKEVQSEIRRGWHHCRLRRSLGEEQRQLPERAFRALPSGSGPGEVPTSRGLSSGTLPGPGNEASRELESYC
As to the kind of experiment: cAMP response (HTRF) in PSC-HEK-293 cells expressing human GIP receptor. It counts as cell-based. To be noted: from EC50 values of Table 5. The protocol: as §1, §2, §3, §4, §5

Data set [3] can be described thus: Plasma stability testing (radio-HPLC) in NHP plasma. Type of data set: in vitro ADME, cynomolgus monkey. To be noted: for Intact peptide (%): NHP plasma, 37° C.
Data set [4] addresses human GLP-1 receptor (hGLP-1R) (Homo sapiens, UniProt P43220). In words: cAMP response (HTRF) in PSC-HEK-293 cells expressing human GLP-1 receptor. It counts as cell-based. As to the method:
as §1, §2, §3, §4, §5

The target in the next data set is T3, human GIP receptor (human, UniProt P48546 22-466).
T3 sequence (looked up): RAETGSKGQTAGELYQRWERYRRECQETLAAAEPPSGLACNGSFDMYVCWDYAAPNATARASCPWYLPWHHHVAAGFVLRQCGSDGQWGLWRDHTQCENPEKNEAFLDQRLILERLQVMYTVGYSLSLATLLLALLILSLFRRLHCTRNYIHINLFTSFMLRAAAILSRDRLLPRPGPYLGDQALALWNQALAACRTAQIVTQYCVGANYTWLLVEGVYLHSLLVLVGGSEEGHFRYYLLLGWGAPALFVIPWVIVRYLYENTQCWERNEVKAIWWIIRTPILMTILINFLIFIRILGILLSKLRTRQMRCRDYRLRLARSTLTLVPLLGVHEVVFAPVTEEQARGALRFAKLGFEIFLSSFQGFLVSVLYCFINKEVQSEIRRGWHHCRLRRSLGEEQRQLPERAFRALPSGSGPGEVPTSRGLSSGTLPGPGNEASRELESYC
In words: cell-based or functional assay.

Like-named read-outs stand apart in the source and are kept apart here. Where a SMILES comes first, the peptide text is derived from it. Where no end group is shown, it is not given here. [ ]: non-standard residue; d: D form. The star is where a group is joined. DO3A(CH2CH2SO2CH2CH2) = O=C(O)CN1CCN(CCS(=O)(=O)CC*)CCN(CC(=O)O)CCN(CC(=O)O)CC1; DOTA = O=C(O)CN1CCN(CC(=O)O)CCN(CC(=O)*)CCN(CC(=O)O)CC1; Aib = CC(C)(N)C(=O)O Some results are limits rather than exact numbers.

T1 sequence (P47871 26-477): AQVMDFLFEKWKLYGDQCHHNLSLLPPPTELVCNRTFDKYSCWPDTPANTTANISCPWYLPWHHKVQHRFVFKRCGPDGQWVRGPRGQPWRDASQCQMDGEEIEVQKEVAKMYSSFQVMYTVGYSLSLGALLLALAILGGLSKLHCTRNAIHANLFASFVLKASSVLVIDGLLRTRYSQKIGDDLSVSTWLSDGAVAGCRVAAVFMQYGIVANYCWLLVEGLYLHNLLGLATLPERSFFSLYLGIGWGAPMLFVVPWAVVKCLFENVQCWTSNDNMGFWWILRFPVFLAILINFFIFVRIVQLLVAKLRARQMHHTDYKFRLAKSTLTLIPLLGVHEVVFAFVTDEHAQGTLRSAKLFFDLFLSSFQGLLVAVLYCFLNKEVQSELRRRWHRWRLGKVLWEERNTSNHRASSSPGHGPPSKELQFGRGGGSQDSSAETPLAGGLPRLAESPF
Sequence of human GLP-1 receptor (hGLP-1R) (P43220 24-463): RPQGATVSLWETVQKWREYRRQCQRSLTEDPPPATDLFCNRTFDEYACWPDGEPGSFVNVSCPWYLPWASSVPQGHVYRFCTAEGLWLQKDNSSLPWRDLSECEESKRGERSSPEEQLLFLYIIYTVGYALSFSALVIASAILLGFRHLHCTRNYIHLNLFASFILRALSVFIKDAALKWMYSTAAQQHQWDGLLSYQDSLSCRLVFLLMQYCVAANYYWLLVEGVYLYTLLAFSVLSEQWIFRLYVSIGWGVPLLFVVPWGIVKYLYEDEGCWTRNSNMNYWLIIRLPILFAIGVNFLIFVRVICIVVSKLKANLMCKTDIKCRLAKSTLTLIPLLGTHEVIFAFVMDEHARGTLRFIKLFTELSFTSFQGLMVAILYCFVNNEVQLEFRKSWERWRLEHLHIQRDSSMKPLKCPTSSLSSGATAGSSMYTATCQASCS

A word on the EC50: it is the concentration giving half of the maximal effect. As for `CC[C@H](C)[C@H](NC(=O)[C@H](CO)NC(=O)[C@H](Cc1ccc(O)cc1)NC(=O)[C@H](CC(=O)O)NC(=O)[C@H](CO)NC(=O)[C@@H](NC(=O)[C@H](Cc1ccccc1)NC(=O)[C@@H](NC(=O)CNC(=O)[C@H](CCC(=O)O)NC(=O)[C@H](C)NC(=O)[C@@H](N)Cc1ccc(O)cc1)[C@@H](C)O)[C@@H](C)CC)C(=O)N[C@@H](C)C(=O)N[C@@H](CCSC)C(=O)N[C@@H](CC(=O)O)C(=O)N[C@@H](CCCCN)C(=O)N[C@H](C(=O)N[C@@H](Cc1c[nH]cn1)C(=O)N[C@@H](CCC(N)=O)C(=O)N[C@@H](CCC(N)=O)C(=O)N[C@@H](CC(=O)O)C(=O)N[C@@H](Cc1ccccc1)C(=O)N[C@H](C(=O)N[C@@H](CC(N)=O)C(=O)N[C@@H](Cc1c[nH]c2ccccc12)C(=O)N[C@@H](CC(C)C)C(=O)N[C@@H](CC(C)C)C(=O)N[C@@H](C)C(=O)N[C@@H](CCC(N)=O)C(=O)N[C@@H](CCCCN)C(=O)NCC(=O)N[C@@H](CCCCN)C(=O)N[C@@H](CCCCN)C(=O)N[C@@H](CC(N)=O)C(=O)N[C@@H](CC(=O)O)C(=O)N[C@@H](Cc1c[nH]c2ccccc12)C(=O)N[C@@H](CCCCN)C(=O)N[C@@H](Cc1c[nH]cn1)C(=O)N[C@@H](CC(N)=O)C(=O)N[C@H](C(=O)N[C@H](C(=O)N[C@@H](CCC(N)=O)C(=O)O)[C@@H](C)O)[C@@H](C)CC)C(C)C)[C@@H](C)CC` [SEQ ID NO: 1, YAEGTFISDYSIAMDKIHQQDFVNWLLAQKGKKNDWKHNITQ-OH], the EC50 in data set [1] is > 10 nM; in data set [1] (read-out: EC50 hGCGR, 384-well format) it was > 10 nM.

As to “Y-Aib-EGTFISDLSIALDRIHQEEFIEWLLAGGK(DOTA(Ga))-NH2 (Y[Aib]EGTFISDLSIALDRIHQEEFIEWLLAGGK(DOTA)-NH2; also: Ga (68Ga) complexed in DOTA on Lys31) [SEQ ID NO: 4]”, the “potency (ability to activate the human GIP receptor) compared to native GIP or GIP(1-30)” value (from here on “potency … compared to native GIP or GIP(1-30)”) in data set [2] is “lower potency”. In addition, the “Intact peptide (%)” value is on record as 99.5% in data set [3] (0 min), 98.65% in data set [3] (15 min), 96.31% in data set [3] (45 min) and 92.98% in data set [3] (90 min). Also, in data set [3] (plasma from NHP, after 90 minutes incubation), the “radioactive signal arising from intact peptide” value was > 92%.

On to “SEQ ID NOs: 3 (Y[Aib]EGTFISDLSIALDRIHQEEFIEWLLAGGK(DOTA)-NH2)”, for which the “potency … compared to native GIP or GIP(1-30)” value in data set [2] is listed as “lower potency”.

As for `CC[C@H](C)[C@H](NC(=O)[C@H](CO)NC(=O)[C@H](CC(C)C)NC(=O)[C@H](CC(=O)O)NC(=O)[C@H](CO)NC(=O)[C@@H](NC(=O)[C@H](Cc1ccccc1)NC(=O)[C@@H](NC(=O)CNC(=O)[C@H](CCC(=O)O)NC(=O)C(C)(C)NC(=O)[C@@H](N)Cc1ccc(O)cc1)[C@@H](C)O)[C@@H](C)CC)C(=O)N[C@@H](C)C(=O)N[C@@H](CC(C)C)C(=O)N[C@@H](CC(=O)O)C(=O)N[C@@H](CCCNC(=N)N)C(=O)N[C@H](C(=O)N[C@@H](Cc1c[nH]cn1)C(=O)N[C@@H](CCC(N)=O)C(=O)N[C@@H](CCC(=O)O)C(=O)N[C@@H](CCC(=O)O)C(=O)N[C@@H](Cc1ccccc1)C(=O)N[C@H](C(=O)N[C@@H](CCC(N)=O)C(=O)N[C@@H](Cc1c[nH]c2ccccc12)C(=O)N[C@@H](CC(C)C)C(=O)N[C@@H](CC(C)C)C(=O)N[C@@H](C)C(=O)NCC(=O)NCC(=O)N[C@@H](CSCCS(=O)(=O)CCN1CCN(CC(=O)O)CCN(CC(=O)O)CCN(CC(=O)O)CC1)C(N)=O)[C@@H](C)CC)[C@@H](C)CC` [SEQ ID NO: 5, Y-Aib-EGTFISDLSIALDRIHQEEFIQWLLAGGC(VS-DO3A)-NH2] (H-Y[Aib]EGTFISDLSIALDRIHQEEFIQWLLAGGC(DO3A(CH2CH2SO2CH2CH2))-NH2; N-terminus assumed), in data set [2], the “potency … compared to native GIP or GIP(1-30)” value was “lower potency”. The EC50 in data set [4] and in data set [1] was > 10 nM each time.

Take “hGlucagon (from UniProt P01275 53-81) (ligand)”: in the data set with human GIP receptor, the EC50 hGIP R, cAMP formation (HTRF), 96-well format was > 10 nM and the EC50 hGIP R, cAMP formation (HTRF), 384-well format was > 10 nM.
